Experimental findings from patent US20120190819A1 (MEDICAL RESEARCH COUNCIL, published 2012) are described below.

Positions count from the first letter of the chain named.

The chains are these.
B1: control peptide aptamer RLNKPLPSLPVG* (truncated STM) (designed binder)
chain: MIPWGLSEAKPATPEIQEIVDKVKPQLEEKTNETYGKLEAVQYKTQVDAGTNYYIKVRAGDNKYMHLKVFNGPRLNKPLPSLPVG
notes: Ends at a stop codon after the added G (unconstrained control)
B2: re-constrained AptA, RLNKPLPSLPVH in full-length STM (designed binder)
chain: MIPWGLSEAKPATPEIQEIVDKVKPQLEEKTNETYGKLEAVQYKTQVDAGTNYYIKVRAGDNKYMHLKVFNGPRLNKPLPSLPVHGPPGQNEDLVLTGYQVDKNKDDELTGF
notes: Stop codon of AptA replaced, making a full-length aptamer constrained in STM
B3: re-constrained AptA, RLNKPLPSLPVS in full-length STM (designed binder)
chain: B2 chain with H85S
notes: as for B2
B4: re-constrained AptA, RLNKPLPSLPVE in full-length STM (designed binder)
chain: B2 chain with H85E
notes: as for B2
B5: re-constrained AptA, RLNKPLPSLPVK in full-length STM (designed binder)
chain: B2 chain with H85K
notes: as for B2
B6: re-constrained AptA, RLNKPLPSLPVN in full-length STM (designed binder)
chain: B2 chain with H85N
notes: as for B2
B7: re-constrained AptA, RLNKPLPSLPVV in full-length STM (designed binder)
chain: B2 chain with H85V
notes: as for B2
B8: re-constrained AptA, RLNKPLPSLPVY in full-length STM (designed binder)
chain: B2 chain with H85Y
notes: as for B2
B9: re-constrained AptA, RLNKPLPSLPVG in full-length STM (designed binder)
chain: B2 chain with H85G
notes: as for B2
B10: re-constrained AptA, RLNKPLPSLPVC in full-length STM (designed binder)
chain: B2 chain with H85C
notes: as for B2
B11: re-constrained AptA, RLNKPLPSLPVP in full-length STM (designed binder)
chain: B2 chain with H85P
notes: as for B2
B12: re-constrained AptA, RLNKPLPSLPVI in full-length STM (designed binder)
chain: B2 chain with H85I
notes: as for B2
B13: re-constrained AptA, RLNKPLPSLPVM in full-length STM (designed binder)
chain: B2 chain with H85M
notes: as for B2
B14: re-constrained AptA, RLNKPLPSLPVQ in full-length STM (designed binder)
chain: B2 chain with H85Q
notes: as for B2
B15: re-constrained AptA, RLNKPLPSLPVF in full-length STM (designed binder)
chain: B2 chain with H85F
notes: as for B2
B16: re-constrained AptA, RLNKPLPSLPVL in full-length STM (designed binder)
chain: B2 chain with H85L
notes: as for B2
B17: re-constrained AptA, RLNKPLPSLPVA in full-length STM (designed binder)
chain: B2 chain with H85A
notes: as for B2
B18: re-constrained AptA, RLNKPLPSLPVR in full-length STM (designed binder)
chain: B2 chain with H85R
notes: as for B2
B19: re-constrained AptA, RLNKPLPSLPVW in full-length STM (designed binder)
chain: B2 chain with H85W
notes: as for B2
B20: re-constrained AptA, RLNKPLPSLPVT in full-length STM (designed binder)
chain: B2 chain with H85T
notes: as for B2
B21: STM peptide aptamer 01 (designed binder)
chain: MIPWGLSEAKPATPEIQEIVDKVKPQLEEKTNETYGKLEAVQYKTQVDAGTNYYIKVRAGDNKYMHLKVFNGPVPNKPLPALPVIGPGVNKPLPALPAHGPIRNKPLPSLPASGPPGQNEDLVLTGYQVDKNKDDELTGF
notes: Insert (with its GP ends) constrained in STM
B22: STM peptide aptamer 09 (designed binder)
chain: MIPWGLSEAKPATPEIQEIVDKVKPQLEEKTNETYGKLEAVQYKTQVDAGTNYYIKVRAGDNKYMHLKVFNGPMLNKPLPSLPVGGPGLNKPLPSLPAAGPPGQNEDLVLTGYQVDKNKDDELTGF
notes: as for B21
B23: STM peptide aptamer 02 (designed binder)
chain: B22 chain with M74V, G85M, G88T, L89P, S95P
notes: as for B21
B24: STM peptide aptamer 13 (designed binder)
chain: B22 chain with M74Y, V84L, G85C, G88S, L89V, K91R, S95A, A98D, A99V
notes: as for B21
B25: STM peptide aptamer 20 (designed binder)
chain: B22 chain with M74R, L75M, V84L, G88A, L89M, S95A, A98L, A99Q
notes: as for B21
B26: STM peptide aptamer 11 (designed binder)
chain: B22 chain with M74F, L75P, S81A, V84L, G85T, G88V, K91R, S95P, A98R, A99N
notes: as for B21
B27: STM peptide aptamer 08 (designed binder)
chain: B22 chain with M74D, L75P, K77R, G85T, G88Y, S95A, A98V, A99S
notes: as for B21
B28: STM peptide aptamer 04 (designed binder)
chain: B22 chain with M74Y, K77R, V84A, G85Y, G88W, L89V, K91R, A98L, A99S
notes: as for B21
B29: STM peptide aptamer 17 (designed binder)
chain: B22 chain with M74E, L75P, S81A, V84L, G85T, G88V, K91R, S95P, A98R, A99N
notes: as for B21
B30: STM peptide aptamer 07 (designed binder)
chain: B22 chain with M74P, L75N, N76V, S81A, V84L, G85M, G88L, S95A, A98L, A99D
notes: as for B21
B31: STM peptide aptamer 06 (designed binder)
chain: B22 chain with M74V, L75V, G85K, G88D, L89V, A99V
notes: as for B21
B32: STM peptide aptamer 10 (designed binder)
chain: B22 chain with M74I, S81A, V84L, G85R, G88D, L89P, K91R, S95A, A98V, A99T
notes: as for B21
B33: STM peptide aptamer 05 (designed binder)
chain: B2 chain with R74N, S81A, H85L
notes: Insert (with its GP ends) constrained in STM; also called Apt05; Pep05
B34: STM peptide aptamer 03 (designed binder)
chain: B2 chain with R74D, S81A
notes: Insert (with its GP ends) constrained in STM; also called Apt03
B35: Apt34 (peptide aptamer 034 in truncated STM) (designed binder)
chain: MIPWGLSEAKPATPEIQEIVDKVKPQLEEKTNETYGKLEAVQYKTQVDAGTNYYIKVRAGDNKYMHLKVFNGPSVNKPLPSLPSLPVYGP
notes: Truncated by a frame-shift and an out-of-frame stop codon
B36: AptA (peptide aptamer A in truncated STM) (designed binder)
chain: MIPWGLSEAKPATPEIQEIVDKVKPQLEEKTNETYGKLEAVQYKTQVDAGTNYYIKVRAGDNKYMHLKVFNGPRLNKPLPSLPV
notes: Scaffold ends at the in-frame stop codon after the 11mer (unconstrained C-terminal peptide); also called PepA; pepA
B37: Apt124 (peptide aptamer 124 in truncated STM) (designed binder)
chain: B36 chain with L75G, S81A, V84L
notes: Scaffold ends at the in-frame stop codon after the 11mer
B38: Apt32 (peptide aptamer 032 in truncated STM) (designed binder)
chain: B36 chain with R74L, L75P, V84L
notes: Scaffold ends at the in-frame stop codon after the 11mer; also called Pep32

T1 sequence (P40073 300-367 limits assumed): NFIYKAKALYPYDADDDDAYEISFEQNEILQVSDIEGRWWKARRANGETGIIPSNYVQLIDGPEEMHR

The first experiment has as its target T1, SH3 domain of yeast Sho1p (yeast two-hybrid bait, pEG202-Sho1-SH3) (yeast, UniProt P40073 300-367, limits assumed).
T1 construct: domain: SH3 domain; also called Sho1p SH3 domain
Kind of experiment: yeast two-hybrid, Sho1-SH3 binding. The text has this: We noted that other peptides containing a leucine at −5 (such as Apt03 and 05) were not inhibitory. Unlike AptA, these two peptide aptamers are constrained. To test the idea that constraint prevents the PPII helix of peptide aptamers such as Apt03 and 05 from productive interaction with Sho1 SH3, we replaced the C-terminal stop codon of AptA with codons encoding each amino acid residue in turn to make AptA a full-length peptide aptamer constrained in STM. After re-constraint, only one of the seven amino acid residues P, V, C, D, H, F and W at +5 allow binding to Sho1 SH3 in the context of a constrained protein (Table IV). This contrasts with the findings of Feng et al [Feng S, Chen J K, Yu H, Simon J A, Schreiber S L. 1994. Two binding orientations for peptides to the Src SH3 domain: development of a general model for SH3-ligand interactions. Science. 266: 1241-7] and Rickles et al [Rickles R J, Botfield M C, Zhou X M, Henry P A, Brugge J S, Zoller M J. 1995. Phage display selection of ligand residues important for Src homology 3 domain binding specificity. Proc Natl Acad Sci USA. […] In addition, none of the constrained AptA variants show the ability to inhibit Pbs2-Hog1 activation (Table IV). […] They further indicate that in the context of STM, the presence of one of the 7 permissive residues at position +5 either allows the formation of a left handed type II polyproline helix or allows interaction at a surface on Sho1 distinct from the SH3 domain.
As for B1, the binding result was “binds”. For B2, the binding result is given as “binds”. The same measure, in the same setting: under B3 stands “no binding”. On the same count and under the same terms, under B4 stands “no binding”; under B5, “binds”; under B6, “binds”.

For B7, the binding result was “binds”. B8: the binding result is “no binding”.

As to B9, the binding result is recorded as “no binding”. The same measure, in the same setting: under B10 stands “binds”; under B11, “binds”.

For the molecule B12, the binding result is on record as “no binding”.

For the molecule B13, the binding result is reported as “no binding”.

As to B14, the binding result is recorded as “no binding”.

For B15, the binding result is “binds”.

For the molecule B16, the binding result is listed as “no binding”.

Take B17: the binding result was “no binding”. Consider B18, for which the binding result is “no binding”. As for B19, the binding result is “binds”. With B20, the binding result is recorded as “no binding”.

Another experiment concerns the target T1, SH3 domain of yeast Sho1p (yeast …). Kind of experiment: yeast two-hybrid screen, confirmed by interaction mating. An excerpt: (§1) Degenerate oligonucleotide cassettes were made by annealing and amplifying P20 and P21 encoding a biased library designed around the Pbs2p proline rich sequence ([…]) (SEQ ID NO: 33) that interacts with the SH3 domain of Sho1p. Translation of the cassette gives X(L/V/P/A)N(K/R)PLP(P/S/A)LP(L/V/P/A)X (SEQ ID NO: 34). At the DNA level, this oligonucleotide should give rise to a library with a theoretical complexity of 98,304. The cassette was ligated into STM pJG4-5, and grown up in XL10 Gold cells (Stratagene). The midi-prepped (Qiagen) DNA was used to create a yeast library of 6×10⁴ cells in EGY48, theoretically covering 60% of the sequences encoded by the library. These cells were mated with EGY42 cells carrying pEG202-Sho1-SH3, made as described above. Interactors were selected on -UHTL/X-Gal/Gal-Raff plates for 4 days, picked and the plasmids rescued into E. coli KC8 cells. The plasmids were transformed back into EGY48 to confirm interaction with the SH3 domain of Sho1p in EGY42 using an interaction-mating matrix.
Take B21: the binding result is given as “binds”. The same measure, in the same setting: under B22 stands “binds”; under B23, “binds”.

For B24, the binding result was “binds”.

Take B25: the binding result is reported as “binds”. On the same count and under the same terms, for B26 the value was “binds”. Still for that read-out and setting: for B27 the value was “binds”; for B28, “binds”; for B29, “binds”. As for B30, the binding result is on record as “binds”. Consider B31, for which the binding result is on record as “binds”. Still for that read-out and setting: for B32 the value was “binds”; for B33, “binds”. Still for that read-out and setting: under B34 stands “binds”.

For a further experiment the target is unchanged. Kind of experiment: yeast two-hybrid screen.
Text: as §1
With B35, the binding result was “binds”.

Take B36: the binding result was “binds”. On to B37, for which the binding result is given as “binds”. The same measure, in the same setting: under B38 stands “binds”.
